# In paper PMC11407402:
# Several values for one entry are separate records, joined by “and”; a condition that tells them apart may be missing. Identical values can stand only once.
# Target: non-glycosylated recombinant FcγRIIIa, 158 V allele, immobilised in the TSKgel FcγR-IIIA-NPR column
# Assay: affinity HPLC on immobilised receptor
substance,measurement,value
"anti-CD20 antibody (rituximab V regions), wild-type human IgG1",elution time,14.4 min and 16.2 min and 17.9 min
same,mean elution time,15.5 min
